Ends that are not written are not given here.
B1: SP-C(LKS) (peptide)
peptide: FGIPSSPVHLKRLLILKLLLLKILLLKLGALLMGL
modifications: ends and bridges not checked
notes: The non-acylated form was run in SDS-PAGE; also called analogue of SP-C

Experiments:
[1] = SDS-PAGE (oligomer formation); type: physicochemical
Text: The purity of the peptide was checked by sodium-dodecylsulphate (SDS) polyacrylamide gel electrophoresis (PAGE) (Phast-system, Pharmacia, Sweden) and by reversed phase high performance liquid chromatography (HPLC), using a C18 column and a linear gradient of 60% aqueous methanol/0.1% TFA and isopropanol/0.1% TFA (Gustafsson, M. et al. (1997) Biochem. J. 326, 799–806).

[2] = Surface film stability, captive bubble system; type: physicochemical; conditions: surfactant mixtures, samples containing 5% of peptide
Experimental: In an even more preferred embodiment of the invention, surfactant mixtures containing the peptide in which palmitoyl chains are O-covalently linked to the Ser residues should be used. […] In the samples containing 5% of dipalmitoylated peptide, the γmin was below 1.5 mN/m and the films very stable, as the surface tension increased by less than 0.5 mN/m within 10 min at constant bubble volume.

[3] = Nilsson, G. et al. (1998) Eur. J. Biochem. 255, 116–124; cited from earlier work
[4] = Preparation of peptide/lipid mixtures (attainable lipid concentration); type: physicochemical; conditions: polypeptide/lipid ratio of 0.03
Experimental: DPPC, PG and PA were all purchased from Sigma Chemical Co. (St Louis, Mo.). The lipids, dissolved in chloroform/methanol 98:2 (v/v), were mixed in the proportions DPPC:PG:PA 68:22:9 (w/w/w) or DPPC/PG 7:3 (w/w). Surfactant preparations were prepared by adding SP-C(LKS) alone or SP-C(LKS) and SP-B, to each of the lipid mixtures, at total polypeptide/lipid weight ratios of 0–0.05. The mixtures were evaporated under nitrogen and resuspended in 150 mmol/l NaCl or in 10 mmol/l Hepes buffer pH 6,9 containing 140 mmol/l NaCl and 2.0 mmol/l CaCl2, at lipid concentrations of 10–80 mg/ml. Repeated freezing and sonication (50 W, 48 kHz) were performed until homogeneous suspensions were achieved. In some cases the final suspensions were incubated at 45° C. for 1 h.

[5] = Peptide secondary structure by circular dichroism (CD) spectroscopy; type: physicochemical
Experimental: Peptide secondary structure was investigated using circular dichroism (CD) spectroscopy (Jasco-720 Jasco, Japan). After solubilisation with triflouroethanol (TFE) spectra were recorded from 260 to 184 nm with a scan speed of 20 nm/min and a resolution of 2 data points/nm. The residual molar ellipticy was calculated and expressed in kdeg×cm^2/dmol. Molar ellipticities at 208 and 222 nm were utilised for estimating the content of helical structure (Barrow, C. J. et al. (1992) J. Mol. Biol. 225, 1075–1093).

[6] = target: the molecule itself; assay: SDS-PAGE, self-association (oligomerisation)

Row | Molecule | SDS-PAGE pattern (oligomerisation) [1] | γmin (captive bubble system) [2] | highest concentration of lipid-peptide mixture that can be prepared / solubilized [3] [mg/mL] | lipid concentration of peptide/lipid mixture that could be made [4] [mg/mL] | α-helical content ([5]; solubilised in TFE, estimated from the 208 nm and 222 nm minima) | secondary structure on dilution ([5]; stepwise dilution with H2O until 12% TFE, peptide solubilized in neat TFE) | binding result [6]
1 | SP-C(Leu): reference peptide; transmembranous SP-C analogue with all helical Val residues replaced with Leu (Nilsson et al.) (FGIPSSPVLKRLLILLLLLLLILLLILGALLMGL) | forms oligomers | approx. 5 mN/m | ≤ 20 | – | – | – | –
2 | FGIPSSPVHLKRLLILKLLLLKILLLKLGALLMGL [SP-C(LKS), SP-C analogue: Val 16–28 replaced with Leu, Lys at 17, 22, 27, Cys 5 and 6 replaced with Ser] | single band | – | – | 80 | approximately 75% | remained stable | –
3 | B1 | – | – | – | – | – | – | no binding
